{
  "source": "paper PMC9704693",
  "target": "extracellular fragment of lymphotoxin-beta receptor (LTβR) (629-LR-100, R&D Systems) (UniProt P36941)",
  "experiment": "SPR",
  "data": [
    {"substance": "Ixodes persulcatus salivary protein (IpSAP), recombinant (natural protein)", "values": [
      {"measurement": "Kd", "value": 124, "unit": "nM"}
    ]}
  ]
}
